Series [1] has as its target T1, Solute carrier family 22 member 1 (Mus musculus, UniProt O08966).
T1 sequence (O08966 whole entry): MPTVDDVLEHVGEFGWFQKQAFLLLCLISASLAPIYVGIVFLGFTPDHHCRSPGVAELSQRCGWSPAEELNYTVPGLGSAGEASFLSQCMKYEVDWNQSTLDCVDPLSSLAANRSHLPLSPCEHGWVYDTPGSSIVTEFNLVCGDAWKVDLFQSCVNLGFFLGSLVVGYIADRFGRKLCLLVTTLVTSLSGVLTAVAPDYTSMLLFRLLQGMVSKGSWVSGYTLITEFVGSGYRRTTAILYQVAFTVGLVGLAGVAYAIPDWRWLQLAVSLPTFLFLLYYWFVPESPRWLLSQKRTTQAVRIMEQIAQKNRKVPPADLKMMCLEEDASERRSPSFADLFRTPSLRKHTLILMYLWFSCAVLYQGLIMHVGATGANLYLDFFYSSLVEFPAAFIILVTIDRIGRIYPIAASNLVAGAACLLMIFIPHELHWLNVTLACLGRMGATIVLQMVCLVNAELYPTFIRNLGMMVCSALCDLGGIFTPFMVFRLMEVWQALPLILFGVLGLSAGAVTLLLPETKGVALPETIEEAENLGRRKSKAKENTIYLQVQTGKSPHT
As to the kind of experiment: TP_TRANSPORTER: decrease in small intestine concentration in Oct1 -/- mouse. The settings on record: in vivo. The series is classed as functional, organism-based.

Series [2] concerns the target T1, Solute carrier family 22 member 1. In words: TP_TRANSPORTER: decrease in liver concentration in Oct1 -/- mouse. The series is classed as functional, organism-based. To be noted: in vivo.
Substrate in series [3]: CCCCNC(=N)NC(=N)N
As to the kind of experiment: cells, lysate or membranes named.

Substrate in series [4]: CN(C)C(=N)N=C(N)N
As to the kind of experiment: (§1) TP_TRANSPORTER: uptake in OCT1-expressing CHO cells. The series is classed as functional, cell-based.

Substrate in series [5]: [H]/N=C(/N)N/C(=N/[H])NCCc1ccccc1
The description is as §1. The series is classed as functional, cell-based.

Here are results for two molecules from ChEMBL document CHEMBL2073814, “Involvement of organic cation transporter 1 in hepatic and intestinal distribution of metformin” (J Pharmacol Exp Ther, 2002).

Broadly, the Km is the concentration of substrate that gives half-maximal velocity.

`CN(C)C(=N)N=C(N)N` [METFORMIN]: the Activity entry in series [1] and in series [2] was “substrate [+]” throughout.

B1: Solute carrier family 22 member 1 (Rattus norvegicus) (protein)
chain: MPTVDDVLEQVGEFGWFQKQAFLLLCLISASLAPIYVGIVFLGFTPGHYCQNPGVAELSQRCGWSQAEELNYTVPGLGPSDEASFLSQCMRYEVDWNQSTLDCVDPLSSLVANRSQLPLGPCEHGWVYDTPGSSIVTEFNLVCGDAWKVDLFQSCVNLGFFLGSLVVGYIADRFGRKLCLLVTTLVTSVSGVLTAVAPDYTSMLLFRLLQGMVSKGSWVSGYTLITEFVGSGYRRTTAILYQMAFTVGLVGLAGVAYAIPDWRWLQLAVSLPTFLFLLYYWFVPESPRWLLSQKRTTRAVRIMEQIAQKNGKVPPADLKMLCLEEDASEKRSPSFADLFRTPNLRKHTVILMYLWFSCAVLYQGLIMHVGATGANLYLDFFYSSLVEFPAAFIILVTIDRIGRIYPIAASNLVTGAACLLMIFIPHELHWLNVTLACLGRMGATIVLQMVCLVNAELYPTFIRNLGMMVCSALCDLGGIFTPFMVFRLMEVWQALPLILFGVLGLTAGAMTLLLPETKGVALPETIEEAENLGRRKSKAKENTIYLQVQTGKSSST
With B1, the results for the Km in series [3], in series [4] and in series [5] were 48.8 µM, 377 µM and 15.6 µM, respectively.
